Laboratory results as given in patent publication US20090137002A1 (published 2009).
Where a chain is given by its changes, count along the chain named. Each block holds one binder with its values, some of them ahead of it.

Assays:
[1] = biological target: T1, recombinant mouse EphB3-Fc fusion protein (mouse, UniProt P54754 30-537, limits assumed); assay: ELISA: mEphrinB2-Fc (25 ng/ml) on coated mEphB3-Fc, with or without 100 µg/mL anti-EphB4 Fab
T1 construct: also called mEphB3; not shown: Fc part, not described
T1 sequence (looked up): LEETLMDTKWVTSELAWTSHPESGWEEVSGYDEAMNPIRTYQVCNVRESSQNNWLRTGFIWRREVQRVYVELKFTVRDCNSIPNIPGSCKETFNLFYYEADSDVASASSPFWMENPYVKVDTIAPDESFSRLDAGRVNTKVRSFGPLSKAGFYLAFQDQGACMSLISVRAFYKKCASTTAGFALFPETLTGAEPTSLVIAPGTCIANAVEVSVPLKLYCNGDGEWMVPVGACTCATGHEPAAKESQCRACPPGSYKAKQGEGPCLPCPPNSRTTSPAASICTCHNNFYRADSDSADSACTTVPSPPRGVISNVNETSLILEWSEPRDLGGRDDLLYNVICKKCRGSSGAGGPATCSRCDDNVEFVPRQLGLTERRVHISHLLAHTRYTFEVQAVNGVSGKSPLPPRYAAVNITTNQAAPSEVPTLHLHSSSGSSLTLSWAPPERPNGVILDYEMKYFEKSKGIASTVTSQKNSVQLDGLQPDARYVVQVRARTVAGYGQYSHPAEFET
Experimental: Specificity for EphB4 in ELISA: Wells of a 96-well maxisorp-plate were coated overnight with 100 μL recombinant human EphB4 (hEphB4)-, recombinant mouse EphB3 (mEphB3)- or recombinant mouse EphA4 (mEphA4)-Fc fusion protein at a final concentration of 2.5 μg/mL in PBS. Anti-EphB4 Fab fragments (purified, MH-tagged) were added (100 μL/well, 100 μg/mL final concentration in chemiblock) to respective wells and incubated for 1 h at RT. Then 100 μl mEphrinB2-Fc fusion protein either spiked with the respective anti-EphB4 Fab or with PBS was added (25 ng/ml mEphrinB2+/−100 μg/ml Fab diluted in chemiblock) and incubated for max. 20 min at RT. The amount of bound EphrinB2 was detected using biotinylated goat anti-EphrinB2 antibody (0.05 μg/ml final concentration diluted in chemiblock, 1 h at RT), AP-conjugated streptavidin and AttoPhos substrate. Fluorescence was measured (RFU) at 535 nm (430 nm excitation).

[2] = biological target: T2, myc-tagged human EphB4 on transfected CHO cells (human, UniProt P54760 16-987); assay: FACS titration of IgG4-Pro on CHO-EphB4 cells
T2 construct: whole, on cells; also called CHO-EphB4; CHO-hEphB4; not shown: myc tag
T2 sequence (looked up): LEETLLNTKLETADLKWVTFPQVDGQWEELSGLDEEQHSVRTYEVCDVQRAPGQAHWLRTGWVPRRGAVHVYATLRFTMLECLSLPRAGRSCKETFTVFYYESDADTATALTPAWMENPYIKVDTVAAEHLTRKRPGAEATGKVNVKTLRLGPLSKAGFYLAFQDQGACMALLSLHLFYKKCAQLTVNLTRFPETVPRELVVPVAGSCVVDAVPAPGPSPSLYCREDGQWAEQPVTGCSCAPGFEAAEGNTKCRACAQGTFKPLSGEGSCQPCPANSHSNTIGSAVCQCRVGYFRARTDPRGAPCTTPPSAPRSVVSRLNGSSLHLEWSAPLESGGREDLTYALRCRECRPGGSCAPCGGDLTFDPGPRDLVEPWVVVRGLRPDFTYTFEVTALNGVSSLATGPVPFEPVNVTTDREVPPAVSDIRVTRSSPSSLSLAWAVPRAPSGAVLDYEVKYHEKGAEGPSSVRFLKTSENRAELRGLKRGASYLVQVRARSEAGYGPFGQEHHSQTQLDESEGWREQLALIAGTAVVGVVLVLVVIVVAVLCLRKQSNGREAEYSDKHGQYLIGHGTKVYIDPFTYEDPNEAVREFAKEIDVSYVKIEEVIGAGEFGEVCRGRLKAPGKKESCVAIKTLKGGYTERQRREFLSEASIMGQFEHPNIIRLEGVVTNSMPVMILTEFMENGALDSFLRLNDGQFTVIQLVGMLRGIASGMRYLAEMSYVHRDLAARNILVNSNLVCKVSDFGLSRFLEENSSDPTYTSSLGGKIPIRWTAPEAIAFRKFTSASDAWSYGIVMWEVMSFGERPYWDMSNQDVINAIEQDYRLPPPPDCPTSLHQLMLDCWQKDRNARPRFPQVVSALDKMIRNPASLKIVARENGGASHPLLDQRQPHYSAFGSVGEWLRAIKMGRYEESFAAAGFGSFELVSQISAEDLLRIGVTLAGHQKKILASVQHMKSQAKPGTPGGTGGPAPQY
Experimental: For the determination of EC50 values, the 12 final IgGs were analyzed on CHO-EphB4 cells in FACS. The EC50 values of the IgGs, determined in two independent experiments, are given in Table 11 and are compared to the EC50 values of the corresponding Fab. […] Again, as already seen for the Fab, the EC50 values of the MOR07310 pool were slightly better than those of the MOR03641 pool.

[3] = biological target: T2, myc-tagged human EphB4 on transfected …; assay: FACS competition on CHO-EphB4 cells, competitor murine ephrin-B2
Experimental: (§1) C50 values (i.e. IgG4-Pro inhibition of ligand binding) were determined in FACS. […] Receptor-bound ephrin-B2 was detected via biotinylated anti-mouse ephrin-B2 antibody (R&D Systems) and streptavidin-PE. The IC50 values of the IgGs, determined in two independent experiments, are given in Table 11 and are compared to the IC50 values of the corresponding Fab. […] Again, as already seen for the Fab, the IC50 values of the MOR07310 pool were slightly better than those of the MOR03641 pool.

[4] = biological target: T2, myc-tagged human EphB4 on transfected …; assay: FACS, IgG4-Pro inhibition of murine ephrin-B2 binding to CHO-EphB4 cells; n = 1
Experimental: as §1

[5] = biological target: T2, myc-tagged human EphB4 on transfected …; assay: FACS, IgG4-Pro inhibition of murine ephrin-B2 binding to CHO-EphB4 cells
Experimental: as §1

B1: mEphrinB2-Fc fusion protein (Fc fusion, mouse, UniProt P52800 27-227, looked up)
chain: ISRSIVLEPIYWNSSNSKFLPGQGLVLYPQIGDKLDIICPKVDSKTVGQYEYYKVYMVDKDQADRCTIKKENTPLLNCARPDQDVKFTIKFQEFSPNLWGLEFQKNKDYYIISTSNGSLEGLDNQEGGVCQTRAMKILMKVGQDASSAGSARNHGPTRRPELEAGTNGRSSTTSPFVKPNPGSSTDGNSAGHSGNNLLGSE
notes: not shown: Fc part, not described
binding result [1]: binds

B2: MOR07728 IgG4-Pro (antibody, V domains shown)
VH: QVELVQSGAEVKKPGSSVKVSCKASGGTFSTYAISWVRQAPGQGLEWMGRIIPIFGTANYAQKFQGRVTITADESTSTAYMELSSLRSEDTAVYYCARSSYTILTTYYNYNAMDNWGQGTLVTVSS
VL: DIQMTQSPSSLSASVGDRVTITCRASQNINNFLNWYQQKPGKAPKLLIYGSSILQSGVPSRFSGSGSGTDFTLTISSLQPEDFATYYCQQNDFYSPSTFGQGTKVEIKR
notes: Fab MOR07728 converted into human IgG4-Pro format
EC50 [2]: 1.58 nM
EC50 (read off the curve) [2]: ~2 nM
IC50 (read off the curve) [3]: ~3 nM
IC50 [4]: 3.26 nM

B3: MOR07955 IgG4-Pro (antibody, V domains shown)
VH: B2 VH with R50K, T57D, N59D
VL: DIQMTQSPSSLSASVGDRVTITCRASQNINNFLNWYQQKPGKAPKLLIYGSSILQSGVPSRFSGSGSGTDFTLTISSLQPEDFATYYCSQDHFYPPSGTFGQGTKVEIKR
notes: Fab MOR07955 converted into human IgG4-Pro format
IC50 [5]: 0.31 nM
EC50 [2]: 0.51 nM

B4: MOR07957 IgG4-Pro (antibody, V domains shown)
VH: B2 VH with R50Q, T57D, N59D
VL: B2 VL
notes: Fab MOR07957 converted into human IgG4-Pro format
IC50 [5]: 0.79 nM
EC50 [2]: 0.36 nM

B5: MOR07956 IgG4-Pro (antibody, V domains shown)
VH: B2 VH with R50K, T57D, N59D
VL: B2 VL with N91Y, S95L, P96S, S97G
notes: Fab MOR07956 converted into human IgG4-Pro format
EC50 [2]: 0.34 nM
IC50 [4]: 0.43 nM

B7: MOR07724 IgG4-Pro (antibody, V domains shown)
VH: QVQLVESGGGLVQPGGSLRLSCAASGFTFNNAWMSWVRQAPGKGLEWVSGISADGVHKFYADSVKGRFTISRDNSKNTLYLQMNSLRAEDTAVYYCARKGMSFYNNKYAKSMFDLWGQGTLVTVSS
VL: DIELTQPPSVSVAPGQTARISCSGDNLGKKYVHWYQQKPGQAPVLVIYYDSKRPSGIPERFSGSNSGNTATLTISGTQAEDEADYYCSAWTTTMMHIVFGGGTKLTVLG
notes: Fab MOR07724 converted into human IgG4-Pro format
IC50 [5]: 0.1 nM
EC50 [2]: 0.18 nM
IC50 (read off the curve) [3]: ~0.1 nM

Other lines, results leading:

IC50 [5]: 0.23 nM
EC50 [2]: 0.17 nM
EC50 (read off the curve) [2]: ~0.1 nM
IC50 (read off the curve) [3]: ~0.3 nM
B6: MOR07953 IgG4-Pro (antibody, V domains shown)
VH: B7 VH with Q3E, G50A, S52N, D54K, V56Q, H57F, K58T, F59S
VL: B7 VL with S88Q, A89T, T92L, T93S, M94H, H96G, I97N
notes: Fab MOR07953 converted into human IgG4-Pro format

IC50 [5]: 0.16 nM
fold improvement of IC50 compared to the corresponding Fab [5]: 6 fold
EC50 [2]: 0.12 nM
IC50 (read off the curve) [3]: ~0.1 nM
B8: MOR07721 IgG4-Pro (antibody, V domains shown)
VH: QVQLVESGGGLVQPGGSLRLSCAASGFTFNNAWMSWVRQAPGKGLEWVSTIEAKMPNGATFYAAPVKGRFTISRDNSKNTLYLQMNSLRAEDTAVYYCARKGMSFYNNKYAKSMFDLWGQGTLVTVSS
VL: B7 VL
notes: Fab MOR07721 converted into human IgG4-Pro format
